Data taken from article PMC6478713, “Structural insight into YcbB-mediated beta-lactam resistance in Escherichia coli” (Nature Communications, 2019).

Assays:
[1] = target: T1, Escherichia coli YcbB (residue 31 onward), fluorescently labelled with Alexa Fluor 647 (Escherichia coli, UniProt P22525 31-615, Alexa Fluor 647 NHS Ester label (sites not given)); assay: MST; Monolith NT.115Pico; unlabelled PBP5 (120 pM-98 uM) titrated into Alexa Fluor 647-labelled YcbB at 15 nM; Buffer C; analysed using MST; binding isotherm with adjustable Hill coefficient; details: both partners purified
T1 construct: L,D-transpeptidase YcbB (LdtD), E. coli, without its signal peptide (residues 1-30), residue 31 onward; Same construct as m1, labelled for the MST with PBP5; also called fluorescently labelled YcbB; source: E. coli BL21 (DE3), purified (HisTrap Ni2+, SEC Superdex 200), then labelled; not shown: His8, C-terminal, cleaved
T1 sequence: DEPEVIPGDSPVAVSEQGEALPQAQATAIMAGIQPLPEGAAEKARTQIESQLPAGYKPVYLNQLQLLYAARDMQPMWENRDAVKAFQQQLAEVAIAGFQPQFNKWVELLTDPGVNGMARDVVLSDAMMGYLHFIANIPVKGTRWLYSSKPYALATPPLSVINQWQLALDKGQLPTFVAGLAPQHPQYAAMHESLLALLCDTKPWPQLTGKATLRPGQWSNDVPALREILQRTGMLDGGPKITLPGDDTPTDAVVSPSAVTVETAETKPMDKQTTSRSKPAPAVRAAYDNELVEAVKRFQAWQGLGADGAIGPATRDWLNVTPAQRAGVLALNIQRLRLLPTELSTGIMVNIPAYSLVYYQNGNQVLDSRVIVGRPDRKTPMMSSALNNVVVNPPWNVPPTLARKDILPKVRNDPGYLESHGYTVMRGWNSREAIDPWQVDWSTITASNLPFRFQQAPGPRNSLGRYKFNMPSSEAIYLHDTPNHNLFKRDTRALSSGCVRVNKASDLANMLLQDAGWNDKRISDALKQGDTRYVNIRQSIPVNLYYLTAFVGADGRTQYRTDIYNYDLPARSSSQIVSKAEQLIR

[2] = target: T2, Escherichia coli PBP1b from residue 58 onward, styrene-maleic acid co-polymer solubilised, fluorescently … (Escherichia coli, UniProt P02919 58-844, Alexa Fluor 647 NHS Ester label (sites not given)); assay: MST; Monolith NT.115Pico; unlabelled YcbB (1.5 nM-3.1 uM) titrated into Alexa Fluor 647-labelled SMA-solubilised PBP1b at 100 nM; Buffer C; analysed using fluorescence values; binding isotherm with adjustable Hill coefficient; details: both partners purified
T2 construct: Held in styrene-maleic acid co-polymer particles; Thrombin-cleavable tag; the purification paragraph calls the removed tag N-terminal, the cloning paragraph C-terminal; also called SMA-solubilised PBP1b; not shown: His8, C-terminal, cleaved
T2 sequence: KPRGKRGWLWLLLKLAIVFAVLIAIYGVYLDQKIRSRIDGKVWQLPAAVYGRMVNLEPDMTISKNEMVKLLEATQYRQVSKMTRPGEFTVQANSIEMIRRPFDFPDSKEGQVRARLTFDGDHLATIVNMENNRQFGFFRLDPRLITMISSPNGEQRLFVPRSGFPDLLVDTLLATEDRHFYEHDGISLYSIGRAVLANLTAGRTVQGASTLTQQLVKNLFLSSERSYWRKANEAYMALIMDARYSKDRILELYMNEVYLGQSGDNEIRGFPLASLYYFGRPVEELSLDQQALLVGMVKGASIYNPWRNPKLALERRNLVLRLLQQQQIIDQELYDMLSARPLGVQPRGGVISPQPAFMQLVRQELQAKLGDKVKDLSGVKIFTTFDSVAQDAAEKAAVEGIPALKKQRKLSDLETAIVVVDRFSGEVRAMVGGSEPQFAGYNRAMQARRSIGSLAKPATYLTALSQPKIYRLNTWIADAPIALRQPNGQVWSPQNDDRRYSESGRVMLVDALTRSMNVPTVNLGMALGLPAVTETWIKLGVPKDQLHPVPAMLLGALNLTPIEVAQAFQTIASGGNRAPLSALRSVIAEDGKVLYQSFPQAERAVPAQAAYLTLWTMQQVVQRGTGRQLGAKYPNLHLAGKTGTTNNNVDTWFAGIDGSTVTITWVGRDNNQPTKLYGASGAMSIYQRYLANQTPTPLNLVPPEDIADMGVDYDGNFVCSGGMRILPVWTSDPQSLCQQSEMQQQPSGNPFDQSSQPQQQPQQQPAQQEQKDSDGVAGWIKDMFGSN

B1: Escherichia coli PBP5 from residue 30 onward (enzyme)
chain: DDLNIKTMIPGVPQIDAESYILIDYNSGKVLAEQNADVRRDPASLTKMMTSYVIGQAMKAGKFKETDLVTIGNDAWATGNPVFKGSSLMFLKPGMQVPVSQLIRGINLQSGNDACVAMADFAAGSQDAFVGLMNSYVNALGLKNTHFQTVHGLDADGQYSSARDMALIGQALIRDVPNEYSIYKEKEFTFNGIRQLNRNGLLWDNSLNVDGIKTGHTDKAGYNLVASATEGQMRLISAVMGGRTFKGREAESKKLLTWGFRFFETVNPLKVGKEFASEPVWFGDSDRASLGVDKDVYLTIPRGRMKDLKASYVLNSSELHAPLQKNQVVGTINFQLDGKTIEQRPLVVLQEIPEGNFFGKIIDYIKLMFHHWFG
notes: HRV 3C protease-cleavable tag; the purification paragraph calls the removed tag N-terminal, the cloning paragraph C-terminal; also called D,D-carboxypeptidase PBP5; source: E. coli BL21 (DE3), purified (HisTrap Ni2+, SEC Superdex 200); not shown: His8, C-terminal, cleaved
- Kd [1]: ~2 µM

B2: Escherichia coli YcbB without its signal peptide (residue 31 onward) (enzyme)
chain: DEPEVIPGDSPVAVSEQGEALPQAQATAIMAGIQPLPEGAAEKARTQIESQLPAGYKPVYLNQLQLLYAARDMQPMWENRDAVKAFQQQLAEVAIAGFQPQFNKWVELLTDPGVNGMARDVVLSDAMMGYLHFIANIPVKGTRWLYSSKPYALATPPLSVINQWQLALDKGQLPTFVAGLAPQHPQYAAMHESLLALLCDTKPWPQLTGKATLRPGQWSNDVPALREILQRTGMLDGGPKITLPGDDTPTDAVVSPSAVTVETAETKPMDKQTTSRSKPAPAVRAAYDNELVEAVKRFQAWQGLGADGAIGPATRDWLNVTPAQRAGVLALNIQRLRLLPTELSTGIMVNIPAYSLVYYQNGNQVLDSRVIVGRPDRKTPMMSSALNNVVVNPPWNVPPTLARKDILPKVRNDPGYLESHGYTVMRGWNSREAIDPWQVDWSTITASNLPFRFQQAPGPRNSLGRYKFNMPSSEAIYLHDTPNHNLFKRDTRALSSGCVRVNKASDLANMLLQDAGWNDKRISDALKQGDTRYVNIRQSIPVNLYYLTAFVGADGRTQYRTDIYNYDLPARSSSQIVSKAEQLIR
notes: L,D-transpeptidase YcbB (LdtD), E. coli, without its signal peptide (residues 1-30), residue 31 onward; Unlabelled form: titrant in the MST with PBP1b and the protein that was crystallised (there acylated by meropenem on Cys528); Vector named pET41b-GST; no GST on the protein is spoken of; Thrombin-cleavable tag; the purification paragraph calls the removed tag N-terminal, the cloning paragraph …
- Kd [2]: 0.25 ± 0.03 µM
